± gives the standard deviation of the averaged measurements.
Assay: total protein half-life in vivo (active degradation + dilution); higher = more stable protein
[1] = E. coli NCM3722 delta-clpP delta-lon delta-hslV, growth: N-lim chemostat, doubling time 6 h
[2] = E. coli NCM3722 delta-clpP, growth: N-lim chemostat, doubling time 6 h
[3] = E. coli NCM3722 delta-hslV, growth: N-lim chemostat, doubling time 6 h
[4] = E. coli NCM3722 delta-lon, growth: N-lim chemostat, doubling time 6 h
[5] = E. coli NCM3722 delta-smpB, growth: N-lim chemostat, doubling time 6 h
[6] = wild type E. coli NCM3722, growth: C-lim chemostat, doubling time 3 h
[7] = wild type E. coli NCM3722, growth: C-lim chemostat, doubling time 6 h
[8] = wild type E. coli NCM3722, growth: C-lim chemostat, doubling time 12 h
[9] = wild type E. coli NCM3722, growth: N-lim chemostat, doubling time 6 h
[10] = wild type E. coli NCM3722, growth: N-lim chemostat, doubling time 12 h
[11] = wild type E. coli NCM3722, growth: P-lim chemostat, doubling time 6 h
[12] = wild type E. coli NCM3722, growth: P-lim chemostat, doubling time 12 h

| Sequence | total protein half-life in vivo [1] [h] | total protein half-life in vivo [2] [h] | total protein half-life in vivo [3] [h] | total protein half-life in vivo [4] [h] | total protein half-life in vivo [5] [h] | total protein half-life in vivo [6] [h] | total protein half-life in vivo [7] [h] | total protein half-life in vivo [8] [h] | total protein half-life in vivo [9] [h] | total protein half-life in vivo [10] [h] | total protein half-life in vivo [11] [h] | total protein half-life in vivo [12] [h] |
| --- | --- | --- | --- | --- | --- | --- | --- | --- | --- | --- | --- | --- |
| MTQDELKKAVGWAALQYVQPGTIVGVGTGSTAAHFIDALGTMKGQIEGAVSSSDASTEKLKSLGIHVFDLNEVDSLGIYVDGADEINGHMQMIKGGGAALTREKIIASVAEKFICIADASKQVDILGKFPLPVEVIPMARSAVARQLVKLGGRPEYRQGVVTDNGNVILDVHGMEILDPIAMENAINAIPGVVTVGLFANRGADVALIGTPDGVKTIVK [P0A7Z0] | 4.63 ± 0.6 | 3.964 ± 0.033 | 4.16 ± 0.58 | 4.46 ± 0.19 | 4.21 ± 0.072 | 2.89 ± 0.12 | 5.36 ± 0.4 | 9.4966 ± 0.0081 | 4.01 ± 0.3 | 6.79 ± 0.038 | 5.1 ± 0.3 | 11.6 ± 0.7 |
| MEMTNAQRLILSNQYKMMTMLDPANAERYRRLQTIIERGYGLQMRELDREFGELKEETCRTIIDIMEMYHALHVSWSNLQDQQSIDERRVTFLGFDAATEARYLGYVRFMVNVEGRYTHFDAGTHGFNAQTPMWEKYQRMLNVWHACPRQYHLSANEINQIINA [P0A8W8] | 6.72 ± 0.27 | 6.41 ± 0.99 | 6.154 ± 0.032 | 6.11 ± 0.3 | 5.32 ± 0.45 | 3.28 ± 0.18 | 6.14 ± 0.35 | 12.1 ± 0.18 | 5.83 ± 0.58 | 12.9 ± 2.1 | 6.41 ± 0.61 | > 16 |
| MKHLHRFFSSDASGGIILIIAAILAMIMANSGATSGWYHDFLETPVQLRVGSLEINKNMLLWINDALMAVFFLLVGLEVKRELMQGSLASLRQAAFPVIAAIGGMIVPALLYLAFNYADPITREGWAIPAATDIAFALGVLALLGSRVPLALKIFLMALAIIDDLGAIIIIALFYTNDLSMASLGVAAVAIAVLAVLNLCGARRTGVYILVGVVLWTAVLKSGVHATLAGVIVGFFIPLKEKHGRSPAKRLEHVLHPWVAYLILPLFAFANAGVSLQGVTLDGLTSILPLGIIAGLLIGKPLGISLFCWLALRLKLAHLPEGTTYQQIMVVGILCGIGFTMSIFIASLAFGSVDPELINWAKLGILVGSISSAVIGYSWLRVRLRPSV | 6.65 | 6.24 ± 0.42 | 5.55 ± 0.066 | 5.75 ± 0.5 | 6.42 ± 0.43 | 3.69 | 5.22 ± 1.9 | 12 | 5.7 ± 0.59 | 11.7 ± 0.19 | 5.867 ± 0.035 | 10.6 ± 2 |
| MPSARLQQQFIRLWQCCEGKSQDTTLNELAALLSCSRRHMRTLLNTMQDRGWLTWEAEVGRGKRSRLTFLYTGLALQQQRAEDLLEQDRIDQLVQLVGDKATVRQMLVSHLGRSFRQGRHILRVLYYRPLRNLLPGSALRRSETHIARQIFSSLTRINEENGELEADIAHHWQQISPLHWRFFLRPGVHFHHGRELEMDDVIASLKRINTLPLYSHIADIVSPTPWTLDIHLTQPDRWLPLLLGQVPAMILPREWETLSNFASHPIGTGPYAVIRNSTNQLKIQAFDDFFGYRALIDEVNVWVLPEIADEPAGGLMLKGPQGEEKEIESRLEEGCYYLLFDSRTHRGANQQVRDWVSYVLSPTNLVYFAEEQYQQLWFPAYGLLPRWHHARTIKSEKPAGLESLTLTFYQDHSEHRVIAGIMQQILASHQVTLKIKEIDYDQWHTGEIESDIWLNSANFTLPLDFSVFAHLCEVPLLQHCIPIDWQADAARWRNGEMNLANWCQQLVASKAMVPLLHHWLIIQGQRSMRGLRMNTLGWFDFKSAWFAPPDP | 6.14 ± 0.11 | 6.77 ± 0.29 |  | 5.83 ± 0.34 | 5.32 ± 0.33 |  | 5.64 ± 0.28 | 11.9 ± 2.8 | 5.67 ± 0.6 | 13.4 ± 0.32 | 5.35 ± 0.34 | 9.889 ± 0.087 |
| MGSTSSLYAAIDLGSNSFHMLVVREVAGSIQTLTRIKRKVRLAAGLNSENALSNEAMERGWQCLRLFAERLQDIPPSQIRVVATATLRLAVNAGDFIAKAQEILGCPVQVISGEEEARLIYQGVAHTTGGADQRLVVDIGGASTELVTGTGAQTTSLFSLSMGCVTWLERYFADRNLGQENFDAAEKAAREVLRPVADELRYHGWKVCVGASGTVQALQEIMMAQGMDERITLEKLQQLKQRAIHCGRLEELEIDGLTLERALVFPSGLAILIAIFTELNIQCMTLAGGALREGLVYGMLHLAVEQDIRSRTLRNIQRRFMIDIDQAQRVAKVAANFFDQVENEWHLEAISRDLLISACQLHEIGLSVDFKQAPQHAAYLVRNLDLPGFTPAQKKLLATLLLNQTNPVDLSSLHQQNAVPPRVAEQLCRLLRLAIIFASRRRDDLVPEMTLQANHELLTLTLPQGWLTQHPLGKEIIAQESQWQSYVHWPLEVH | 4.11 ± 0.81 | 3.91 ± 0.1 | 3.77 ± 0.53 | 3.75 ± 0.87 | 3.64 ± 0.35 | 2.92 ± 0.24 | 5.11 ± 0.2 | 9.31 ± 0.75 | 3.94 ± 0.33 | 5.6 ± 0.23 | 5.28 ± 1 | 11.3 ± 0.41 |
| MKTSDNERIKYEITGQAVLQILRMKINFSLQTLIKQLLVMKSAEEDAFRRDLIDSIIRDFSNSDSGGPNRRTATADNKSMFNGKKINRIH |  |  |  |  |  |  |  |  |  |  |  | 3.79 |
| MLQNPIHLRLERLESWQHVTFMACLCERMYPNYAMFCQQTGFGDGQIYRRILDLIWETLTVKDAKVNFDSQLEKFEEAIPSADDFDLYGVYPAIDACVALSELVHSRLSGETLEHAVEVSKTSITTVAMLEMTQAGREMSDEELKENPAVEQEWDIQWEIFRLLAECEERDIELIKGLRADLREAGESNIGIIFQQ | 5.09 ± 0.47 | 5.16 ± 0.66 | 4.79 ± 0.12 | 5.23 ± 0.55 | 4.12 ± 1.1 | 3.1 ± 0.088 | 5.93 ± 0.21 |  | 4.84 ± 0.12 | 8.11 ± 0.86 | 6.28 ± 0.52 | 13.7 ± 1.8 |
| MPHHIVIVEDEPVTQARLQSYFTQEGYTVSVTASGAGLREIMQNQSVDLILLDINLPDENGLMLTRALRERSTVGIILVTGRSDRIDRIVGLEMGADDYVTKPLELRELVVRVKNLLWRIDLARQAQPHTQDNCYRFAGYCLNVSRHTLERDGEPIKLTRAEYEMLVAFVTNPGEILSRERLLRMLSARRVENPDLRTVDVLIRRLRHKLSADLLVTQHGEGYFLAADVC | 5.18 ± 0.63 | 4.57 ± 0.43 |  | 4.9 | 3.92 ± 0.089 | 2.78 ± 0.039 | 5.13 ± 0.33 | 9.618 ± 0.075 | 3.89 ± 0.33 | 5.93 | 4.28 | 9.93 ± 0.41 |

— the supplement of paper PMC11246515
